Experimental data taken from patent US20170355774A1 (Regeneron, published 2017).
Each block holds one binder with its values, some of them ahead of it.

Key:
[1] = biological target: T1, human GITR (amino acids M1-V241, NCBI Accession #NP_004186.1) expressed on cells (human, UniProt Q9Y5U5 26-241); assay: ECL cell binding, hGITR/HEK293-D9
T1 construct: also called hGITR; hGITR/HEK293-D9
T1 sequence: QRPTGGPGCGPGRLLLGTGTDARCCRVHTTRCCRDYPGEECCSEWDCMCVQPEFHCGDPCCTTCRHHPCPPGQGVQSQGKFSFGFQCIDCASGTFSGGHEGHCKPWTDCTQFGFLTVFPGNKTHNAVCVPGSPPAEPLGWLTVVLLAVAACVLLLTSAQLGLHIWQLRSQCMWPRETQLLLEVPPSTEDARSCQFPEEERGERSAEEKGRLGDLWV
Description: Nonspecific binding sites were blocked with 2% BSA (w/v)+PBS for 1 h at room temperature (RT). Next, serial dilutions of anti-GITR antibodies, ranging from 1.7 pM to 100 nM, were added to cells for 1 h at RT. Plates were then washed to remove unbound antibodies (AquaMax2000 plate washer, MSD Analytical Technologies) and plate-bound antibodies were detected with a SULFO-TAG™ conjugated anti-human kappa light chain IgG antibody (Jackson Immunoresearch) for 1 h at RT.
Following washes, luminescent signals were recorded with a SECTOR Imager 6000 (MSD) instrument. Direct binding signals (relative light units, RLU) were analyzed as a function of the antibody concentration and data were fitted with a sigmoidal (four-parameter logistic) dose-response model using GraphPad Prism™ software. […] The signal detected with 100 nM antibody binding to the hGITR expressing cells versus parental cells was recorded as an indication of intensity and specificity of GITR binding.

[2] = biological target: T1, human GITR (amino acids M1-V241, NCBI …); assay: cell-based or functional assay
hGITR.mFc = biological target: T2, hGITR.mFc (human); assay: SPR 37C, mAb capture
T2 construct: soluble dimeric construct with mouse Fc; also called dimeric human GITR
T2 chain: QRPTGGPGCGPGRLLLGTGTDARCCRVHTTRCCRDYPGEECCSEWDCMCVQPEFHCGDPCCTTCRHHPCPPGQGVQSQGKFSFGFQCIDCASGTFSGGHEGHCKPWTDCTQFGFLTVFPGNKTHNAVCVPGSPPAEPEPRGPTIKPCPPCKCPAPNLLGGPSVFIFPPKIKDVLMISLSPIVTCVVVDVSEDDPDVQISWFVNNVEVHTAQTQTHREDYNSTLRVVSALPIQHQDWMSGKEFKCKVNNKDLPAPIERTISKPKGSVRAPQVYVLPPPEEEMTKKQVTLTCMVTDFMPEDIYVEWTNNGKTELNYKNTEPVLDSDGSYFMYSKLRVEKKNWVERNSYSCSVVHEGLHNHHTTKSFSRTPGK
Description: (§1) (Table 3). […] GITR proteins were injected over the sensor surface at a flow rate of 30 μL/minute. All Biacore binding studies were performed in a buffer composed of 0.01M HEPES pH 7.4, 0.15M NaCl, 3 mM EDTA, 0.05% v/v Surfactant P20 (HBS-ET running buffer). Antibody-reagent association was monitored for 4 minutes while dissociation in HBS-ET running buffer (10 mM HEPES, 150 mM NaCl, 3 mM EDTA, 0.05% (v/v) Surfactant P20, pH 7.4) was monitored for 10 minutes. Kinetic association (kₐ) and dissociation (kd) rate constants were determined by fitting the real-time sensorgrams to a 1:1 binding model using Scrubber 2.0c curve fitting software. Binding dissociation equilibrium constants (KD) and dissociative half-lives (t ½) were calculated from the kinetic rate constants as: KD [M]=kd/kₐ; and t_{1/2}(min)=(ln 2/(60*kd). Results are summarized in Table 3.

hGITR.mmh = biological target: T3, hGITR.mmh (human); assay: SPR 37C, mAb capture
T3 construct: soluble monomeric construct; also called human (h) GITR.mmh; monomeric human GITR
T3 chain: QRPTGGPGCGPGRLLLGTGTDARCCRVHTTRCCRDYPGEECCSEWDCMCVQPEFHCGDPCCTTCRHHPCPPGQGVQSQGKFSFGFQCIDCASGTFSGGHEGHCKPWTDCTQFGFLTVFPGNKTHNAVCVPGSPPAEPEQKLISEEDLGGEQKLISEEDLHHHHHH
Description: as §1

mfGITR.mmh = biological target: T4, mfGITR.mmh (Macaca fasicularis); assay: SPR 37C, mAb capture
T4 construct: soluble monomeric construct; also called Macaca fasicularis (mf) GITR.mmh; cynomolgus GITR protein
T4 chain: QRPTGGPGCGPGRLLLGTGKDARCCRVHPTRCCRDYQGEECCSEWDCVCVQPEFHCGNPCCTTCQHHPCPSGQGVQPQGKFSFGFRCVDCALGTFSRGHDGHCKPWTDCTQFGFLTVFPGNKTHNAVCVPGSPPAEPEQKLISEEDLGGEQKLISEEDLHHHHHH
Description: as §1

Average Signal (RLU) at 100 nM [1]: 6840 RLU | EC50 [1]: 0.4 nM | % Activation, NF-kB-Luc, non-anchored [2]: 60% | % Blocking, NF-kB-Luc, non-anchored [2]: 90% | EC50, hGITR activation, NF-kB-Luc, non-anchored [2]: 2 nM | IC50, blocking of hGITRL stimulation, NF-kB-Luc, non-anchored [2]: 0.6 nM | Kd (hGITR.mFc): 0.201 nM | koff (hGITR.mFc): 0.000169 s⁻¹ | kon (hGITR.mFc): 842000 M⁻¹ s⁻¹ | t½ (hGITR.mFc): 68.3 min | Kd (hGITR.mmh): 5.06 nM | koff (hGITR.mmh): 0.00162 s⁻¹ | kon (hGITR.mmh): 319000 M⁻¹ s⁻¹ | t½ (hGITR.mmh): 7.2 min | Kd (mfGITR.mmh): 75.3 nM | koff (mfGITR.mmh): 0.00889 s⁻¹ | kon (mfGITR.mmh): 118000 M⁻¹ s⁻¹ | t½ (mfGITR.mmh): 1.3 min
B1: H1H14491P (antibody, human IgG1, V domains shown)
VH: QVQLVESGGGVVQPGRSLRLSCVASGFTFSDYGMHWVRQAPGKGLEWVAVIWYEGSNKYYADSVTGRFTISRDNSKNTLFLQMNSLKAEDTAEYYCAKDGGQLAYQYYYGMDVWGQGTTVTVSS
VL: AIQMTQSPSSLSASVGDRVTLTCRASQGIRNDLGWYQQKPGKAPKSLIYAASNLQSGVPSRFSGSGSGTDFTLTISSLQPEDSATYYCLQDYNYPRTFGQGTKVEIK
notes: human IgG1 (H1H)

Average Signal (RLU) at 100 nM [1]: 4200 RLU | EC50 [1]: 85 nM | Kd (hGITR.mFc): 0.63 nM | koff (hGITR.mFc): 0.000185 s⁻¹ | kon (hGITR.mFc): 293000 M⁻¹ s⁻¹ | t½ (hGITR.mFc): 62.6 min | Kd (hGITR.mmh): 5.06 nM | koff (hGITR.mmh): 0.00138 s⁻¹ | kon (hGITR.mmh): 272000 M⁻¹ s⁻¹ | t½ (hGITR.mmh): 8.4 min | Kd (mfGITR.mmh): 2.55 nM | koff (mfGITR.mmh): 0.000611 s⁻¹ | kon (mfGITR.mmh): 240000 M⁻¹ s⁻¹ | t½ (mfGITR.mmh): 18.9 min
B2: H4H14530P (antibody, human IgG4, V domains shown)
VH: QLQLQESGPGLVKPSETLSLTCTVSGGSISSTNHYWGWIRQPPGKGLEWIGNVYYIGNAYYNPSLKTGVTFSVDTSKNQFSLNLRSVTAADTAMYYCARLSNWNFLDLWGQGTLVTVSS
VL: EIVMTQSPATLSVSPGERATLSCRASQSISSNLAWYQQKPGQAPRLLIYGASTRATGIPARFSGSGSGTEFTLTISSLQSEDFAVYYCQQFNNWLSFGGGTKVEIK
notes: human IgG4 (H4H)

Average Signal (RLU) at 100 nM [1]: 6470 RLU | EC50 [1]: 0.43 nM | % Activation, NF-kB-Luc, non-anchored [2]: 30% | % Blocking, NF-kB-Luc, non-anchored [2]: 80% | EC50, hGITR activation, NF-kB-Luc, non-anchored [2]: 1.3 nM | IC50, blocking of hGITRL stimulation, NF-kB-Luc, non-anchored [2]: 0.7 nM | Kd (hGITR.mFc): 0.0968 nM | koff (hGITR.mFc): 0.00011 s⁻¹ | kon (hGITR.mFc): 1.14e+06 M⁻¹ s⁻¹ | t½ (hGITR.mFc): 105 min | Kd (hGITR.mmh): 2.45 nM | koff (hGITR.mmh): 0.00127 s⁻¹ | kon (hGITR.mmh): 517000 M⁻¹ s⁻¹ | t½ (hGITR.mmh): 9.1 min | Kd (mfGITR.mmh): 24.5 nM | koff (mfGITR.mmh): 0.00723 s⁻¹ | kon (mfGITR.mmh): 296000 M⁻¹ s⁻¹ | t½ (mfGITR.mmh): 1.6 min
B3: H1H14495P (antibody, human IgG1, V domains shown)
VH: QVQLVESGGGAVQPGTSLRLSCAASGFTFSSFGMHWVRQAPGKGLEWVSVIWYEGSNKYYADSVKGRFTISRDNSRNTLSLQMDSLRVEDTAVYYCARGGELGVNYYYDMDVWGQGTTVTVSS
VL: DIQMTQSPSSLSASVGDRVTITCRASQDIKNDLGWFQQKAGKAPKRLFYATSSLQSGVPSRFSGSGSGTEFTLTISSLQPEDFATYYCLQVHSYPRTFGQGTKVEIK
notes: human IgG1 (H1H)
